What was measured:
Test in all cases: SEC
[1] = target: CsrA tetra-mutant (residues 1-61, R31A + K38A + H43A + R44A) (enteropathogenic E. coli (EPEC) O127:H6 E2348/69) (UniProt P69913)
[2] = target: CesT-E121A/Y152A (residues 1-156, E121A + Y152A) (enteropathogenic E. coli (EPEC) O127:H6 E2348/69) (UniProt P21244)
[3] = target: CsrA (residues 1-61), GST tag removed (enteropathogenic E. coli (EPEC) O127:H6 E2348/69) (UniProt P69913)
[4] = target: CesT-Y152A (residues 1-156, Y152A) (enteropathogenic E. coli (EPEC) O127:H6 E2348/69) (UniProt P21244)
[5] = target: CsrA-Cdel (residues 1-44) (enteropathogenic E. coli (EPEC) O127:H6 E2348/69) (UniProt P69913)
[6] = target: CesT-E121A (residues 1-156, E121A) (enteropathogenic E. coli (EPEC) O127:H6 E2348/69) (UniProt P21244)

With “CsrA tetra-mutant (residues 1-61, R31A + K38A + H43A + R44A) (from UniProt P69913 1-61) (natural protein)” the stoichiometry N [1] was 2.
“CesT-E121A/Y152A (residues 1-156, E121A + Y152A) (from UniProt P21244 1-156) (natural protein)” was tested, and the stoichiometry N [2] was 2.
“CsrA (residues 1-61), GST tag removed, P69913 1-61 (natural protein; other documents disagree on this pair)” showed a stoichiometry N [3] of 2.
In the case of “CesT-Y152A (residues 1-156, Y152A) (from UniProt P21244 1-156) (natural protein)”, the stoichiometry N [4] is reported as 2.
“CsrA-Cdel (residues 1-44) (from UniProt P69913 1-44) (domain or fragment)” was tested, and the stoichiometry N [5] was 2.
Work on “CesT-E121A (residues 1-156, E121A) (from UniProt P21244 1-156) (natural protein)” yielded a stoichiometry N [6] of 2.
